The series in a line: label from the status in PepcDB records.
For the sequence “MAYLEVLRYLYHKRPMGKVKPGLERISMLLSKLGNPHLEYKTIHIGGTNGKGSVANMVSNILVSQGYRVGSYYSPHLSTFRERIRLNEEYISEEDVVKIYETMEPILNELDKEEIFSPSFFEVVTAMAFLYFAEKNVDIAVLEVGLGGRLDATNVVFPLCSTIVTVDRDHEKTLGYTIEQIAWEKSGIIKERVPLVTGERKREALKVMEDVARKKSSRMYVIDKDFSVKVKSLKLHENRFDYCGENTFEDLVLTMNGPHQIENAGVALKTLEATGLPLSEKAIREGLKNAKNLGRFEILEKNGKMYILDGAHNPHGAESLVRSLKLYFNGEPLSLVIGILDDKNREDILRKYTGIFERVIVTRVPSPRMKDMNSLVDMAKKFFKNVEVIEDPLEAIESTERATVVTGSLFLVGYVREFLTTGKINEEWKL”, the protein production result was “not failed”.
As to “MRNSNGGRDNRKSNRDQYRKPDYAGEMLFDDEEDYDDDADYDVVDDMKAHNDDYSDSAFGPDADNYDTDDDAWHDDVAAADDDPSDEDGYYDEEYDDTEDWQDMKDSKRKKKNRVWGIILALEIVTAIVIGVLFVKSYINNTYSKMQYNELKNTHINEDLNEESVKKMTGYTNIALFGIDTRDSGMVDDGVRSDSIIICSINNDTQEVKLLSVYRDTYLELCNDSQSYEKAAHAYAYGGAQGAVNMLNKNLDLNITDYVAVNFTALTEAIDALGGIDVELKEEELYKLNQCIDEQMGVNGIYSDYVYDTGVVHLNGVQATAYSRIRSTDEGDITRTWRQRTVISKMIEAAKSAGLSRLLDCINVVVDDVASSLTESEIMDMAKSCFNYKLSTTTGFPFTIASPTMNDVSYVVACDLATNATALHRFLFNDSNYTPSATVQNISDNIVNESGYGNQLDLDTFTVEDDVDSIVNTESDDY”, the protein production entry is reported as “failed”.
In the case of “MTISNFVNYIRSPPVNGFVCCTRGSSIAVCNPTTRQIVKLPDVVTNENYMHVRLGYDPVEDQYKVLLVVMMFDGYRTDTDQEYFVFTLSSQQKEWRKIENTTGETYHMVYGGICIDGAIYYGVSQSIIVKFDVRSEKMEFIQAHEVSHIAPPYYSTLLYLSSDMIRMENHSNEEVRFWILEDAEKLRVSHMACDVWDDSLGKYVRAKEEIHTGKLMGIYPRLQSSKYKPFSVCVYHFNKVGLKKTEIQGSNDDDIRFRCGIGMRTHEILILEVTLRILGSCEEFSWFH” it was “not failed”.
Take “MKLKNILIVVDNIEESIHFYNELFGLNVISRQEGNVIMSEGLVLQDAGIWKESMQIQTIPYNNMTELYFEDNDIEGVVKKLESGRYEVRYATALTELDGGQKLVRFYDQSGNLIEVRTPWDKFVNRE”: the protein production entry was “failed”.
In the case of “MTKAIPWKINWQTMAFEYIGPQIEALLGWPQGSWKSVEDWATRMHPEDQEWVVNFCVKQSECGVDHEADYRALHRDGHYVWIRDVVHVVRDDSGEVEALIGFMFDISLEHHHHHH”, the protein production result is “not failed”.
As for “MTREIIPILPEAPVETARSGNALPLLREIAEHLHHLLETGEASTIDLSALPLTPGDLEWLRAELGGGEVSVTLHADGASTLDETAFPGVWWIIHRNAQGAVTTQFIEVAFVPELVKSPRADVAAARAALVLRMADL”, the protein production result is recorded as “not failed”.
As for “MKTHFYRLKFKKSIFFAVFLSFFSLLFAVDYFEEGKKLLYADKPQEAVSALFKASQEAGTPKSVYLYLGVAYFRMGKYSEALTYLSQGKDKDILNGHLYYYNIGNVYFLQNQFEASELAYNEAISSNGLYAPAFLNRANTRIKLEKLEGALQDYKIYLNLNPETLQRSSIEKMISLLEGLAEEAERAKALAEAKKAAEEAERLAAEARYKKLMEDVNANLSSVDNADALSAGADNTIDYSEENELD”, the protein production entry was “failed”.
Consider “MQTLNVLDNRFSPFNTYSTLSTDALVAETFTNTIFDKRQILALMTQLQTTLDIDELLSIFAVEATRYVDFSGLYFKSQNLNTVLFGSRKAKKEQCFELKIEDNFIGTLSYGINSPISLTNFKVLEQLHLCLLHPIKNAIAYHTAMQLAMQDGLTGLGNRRYFDEQLKRSMHNANRHHSLVGLVLGDLNKFKAINDTHGHIAGDTVLQEFANVLRLCTRDSDSLFRFGGDEFAIIVENANDTALAIIENRINLALASNVQLNKYQLGCSIGSTFMNRADNELSFFERADEILYRRKMQVSSHLSVV”, for which the protein production entry was “failed”.
For “MAQLPASMRRKRAAITSIHEKPPSRKQKLVNAGGWILLCIAFVVLAAGVYGLYKVITDAKIADLSIVGTRSVVEQNQLQQHIQPIIKDNYFTSDLEQIRDKALEISWVDRVVVSRAWPNSIRVRIMPRHAIARWGTGRLLSDSGDVYAEAELKNHPNLPMLHGPITQSKAMMRRYNEINQLFQPVNLRLTELYLTERMTWFMQFDSGLRVIVDQDQTMSKLQRLSHLAQTDLKPVWSKISAIDLRYRNGLSLQWKTGVPPKILNGQFVVTSDDTNVASGMTAKP” the value was “failed”; for “MMDIVEIIIGFIALLMTARIFLERSRARKLLYLCCLSFCISALIALYVDSPMGGIVAITYFICSTISSNAIAYTIEQTKHIE”, “failed”.
In the case of “LEKAGDSVEITNEEAVIQYVNPAFENITLYNAREAMNKTVASLLRSPVEDAQLFEEINQTLKSGNTWKGQIRSRKKDGSYWVAQTIIVPVMDDELGRITQHIAIKQDIT”, the protein production entry is on record as “failed”.
With “SLKKNPRDIVTKKANIRIKTALSKMFNAMAKVTYDIDEADGDVIVNTAFIDKKYLDEAFDILKEAYKKGLGISDRFGIVEENDRIKIQTICAVTLDGIFLRNSVPLIPKYGGILEITEDKERFIDIIGYDGSSLDPHEVFFNFVDCEKTFLAGFREVHRVAREKLEEVLKKLNWNGIKAIGEPNNELYGIGVNKDMCGVVTMGGINPLVLLKENEIPIELKAMHEVVRFSDLKSYKEI”, the protein production result was “not failed”.
For “MGLGMEIGKLIVAFLVLINPFSALSLYLDLTNGHSTKERRKVARTAAVAVFAVIAVFALIGGALLKVLGISVGSFQVGGGILVLLIAISMMNGNDNPAKQNLGAQPETGQARPARNAGAIAVVPIAIPITIGPGGISTVIIYASAAKTYSDIALIIAAGLVVSAICYAILIVAGKVSRLLGATGLTILNRIMGMMLAAVSVEIIVSGLKTIFPQLAG” the value was “failed”; for “MRRTNTFAVRPLSDDDERLLLDLLDASASLWNELNYERRQQFFDGESVWDTADYRKQYVGVLGSATAQQVIRKNKSAWQSFFAARENGEDTAPPGYWGNEDDGRELRTFIRHDLYTLDTGERSRVEIPVGQDLKDEYGLGYHDRLRLEVAGDPKWDGEQGRLEIQYGETDDTFRAFQPVTVPDSRQDSPLASHEAALDVGANNLVACTTTTGEQYLYEGRGLFAHFRETTREIARLQSKLREGRYSSQRIRRLYRKRTRRRDHAQDALVRDLMERLYAEGVDTVYVGDLTDVLSTHWCAEVNAKTHQFWAFRAFIERLSHTAEEYGITVEVRSEADTTRTCPACGEQDDTDRDGDVFRCPCGHEAHADLCASRTFLERQTGKPVGSMARPVRLKWDDHNWSEIPHSPERARPNEKRTNQSTDSQDGKLASVGTA”, “failed”.
With “MEYKPIRKVVSGNYAAAYAALHARVQVVAAYPITPQTSIIEKIAEFIANGEADIQYIPVESEHSAMAACIGASATGARTFTATSAQGLALMHEMLHWAAGARLPIVMVDVNRAMAPPWSVWDDQTDSLSQRDTGWMQFYAENNQEVYDGVLMAYKVAETVNVPAMVVESAFILSHTYDVVEMIPQELVDEFLPPRKPLYSLANFDEPIAVGALATPNDYYEFRYKLAKAHEEAKKVIKEVGKEFGERFGRDY”, the protein production entry was “failed”.
In the case of “MKRKWIDALWVMGVLLMAGFCLSACNRELDVQTVFPFEVSTMPVPKQIKQGETVEVRCSLVSEGDFSGTCYTMRFFQTEGKGVLRIGRGVALKPNDCYPVGKGDFRLYYTSQSKERQSLEIVFEDNHGQSQTIVLDFNHKESDEDKEREAGYRT” it was “failed”.
For “MGDPFLIGGVIIACFVAFNIGGATTGPAFGPAVGANVLSKTTAGALMAVAFFGGAYTIGRRVVDTLGTELVHDPSVFTLEASIIVLFFIGGALLVGNLSGAPASTSMTAVGAIIGLGLASGELNFAVVGEILAWWILSPIIGFWLAVMVGRYGYEALDRRVAIEQSDGPLLAFERVELGRWPVVRLRESPVVRMERISPKLWPALGPNTSWREAVGTAVLVSIGFLMAFSSGTSNIANAIAPLVGSGALAMNPGILIGCGAVAVGALTIARRTMETLGNDITDLPLTAAIVVALLSSLIIIALSALGIPASFVVVATLCIIGLGWGRSTQAVSVAEAVRGDVSPQVSVGALARGDDATVGTVRSQSAPQGASRRTAPVRSDLFDPGTSVRVVLMQNVVPLLATGGSYLTFWLLPVGG” the value was “failed”; for “MSIRLTNISKKFGQFQALSPLNLDIQEGEMIGLLGPSGSGKTTLLRIIAGLEGADSGHIHFGNRDVTQVHVRDRRVGFVFQNYALFRHMTVADNVAFGLEVIPKKQRPSAAEIQKRVSHLLEMVQLGHLAQRYPEQLSGGQKQRIALARALATQPEVLLLDEPFGALDAKVRKELRRWLRSLHDELKFTSVFVTHDQDEALELSDRVVVMSNGNIEQVNTPIELYAQPNSRFVFDFLGNVNRFEANWQQNRWTNGDAFIVPPEQTPLQQNGALYVRSHELALADKPNSQAHIPFTIVAITPIGAEVRVELAPIGWQSEELWEAKFTHHHLQELGLQKGSVVYATPRTGYFFGKQGDGSPIRQSWPFLPPGSLAFDI”, “failed”; for “MTRRTAFFFDELCLWHAAGPHALTLPVGGWVQPPAAAGHAESPETKRRLKSLLDVSGLTARLQLRSAPPASDEDLLRVHPAHYLERFKALSDAGGGSLGQDAPIGPGSYEIARLSAGLAIAALDAVLAGEADNAYSLSRPPGHHCLPDQAMGFCFFANIAVAIEAAKARHGVERVAVLDWDVHHGNGTQAIYYRRDDVLSISLHQDGCFPPGYSGAEDIGEDRGRGFNLNVPLLPGGGHDAYMQAMQRIVLPALERFRPQLIVVASGFDANAVDPLARMQLHSDSFRAMTAMVRDAAERHAGGRLVVVHEGGYSEAYVPFCGLAVIEELSGVRSAVRDPLRDFIELQQPNAAFRDFQRQRLEELAAQFGLCPAQPLQAAR”, “failed”.
Regarding “MRILLVSRPHPEGARDPFTSLLPTGLGYLNAVLRENGFTSSLANLSTASWRQVEELLRRERPAILGISVFTHNRFESLRLAALAKKVDPTCLTIFGGPHATHAFESILVKYREVDGVILGEGEETFLDLARAVERGDRSLTGIVGLAYRKGAKVHSVKRPPVADLDVLPLPALHMNDAWGCDVRRQLEFIITSRGCPAACRFCSSPRFWGKSLRFRSPRAMVDEIRAIRDRYGLIYFSLRDDTFTVRKDRVIDFCRLLLEEKVHILWNCQSRVNAVDEEMLIWMRRAGCECVQYGVESGSEKILAYLGKQITPEQVRRAAKATRRAGISLSIYLISGVPGETDDDLQATLTLISNILPHDGHVAPLAYYPGTALFDEAVREGRVGADLFERERGAALYVRRDPFVARSMETLLRALTRVERKARFGPADFTAQREFLGYCHGTNLGQGEWLEAKGDIGKAEALYREIVERQPENPWGWLALGGLHGSRGDVTRAGKAFERAISLVPAHVPAYLALGDLRLEEGDQRGAKQLYETAKRLNPRDTDVGERLRMVVAERGTKKGDT”, the protein production result is recorded as “failed”.
In the case of “MKAESSNESFIIGQRVHSLNDSRRVGTVKYVGDVEGYSGTWIGVDWDQDGDGKHNGSVNGVFYFNGRSQSSASFVRSQNLSRGITLLQALELRYRTISTKDEEDEMYVLSAGNRRVSIQLLGGDKIQDKLSRFEELTSASLSYLGVSSLGVSSDLGSILPNLKLLDLTGNLISDWEEIGALCEQLPALTTLNLSCNSLSSDIKSLPQLKNIRVLVLNNSGLSWTQVEILRRSLPGIEELHLMGNMISTITSTSSSDDQAFNSLRLLNLDDNCISDWSEVLKLSQLPCLEQLYLNKNKLSRIFQSVNGTESSEKGSDPFPSLSCLLLGANNIGDLASVDALNGFPQLVDIRLSENPISDPVRGGVPRFVLVARLTKVQVLNGSEVRAREKKDSEIRYVRMVMSKLNDKSGEIELLHPRFYELKKLHGIEDERASAENSGPKNIASGLISITLKCVGPSMGEKPHLTKKLPGSITVGKLKILSENFFKLKSIKPRLFLQEEGSPFPTALDDETATLLDVGICDGSTLLVDEES” it was “failed”.

The record behind these values is a protein production outcome set (Wang et al. 2014).
